From article PMC6077248

Target: Venus-Gβ2γ7 (Venus 156-239-Gβ2 with Venus 1-155-Gγ7), P62879-1;O60262
Assay: BRET (suppression of GRK3ct-Gβ2γ7 BRET by competing Gαolf)
Conditions: chain shown with the change; HEK293T/17 cells; parent: est. 100; read off a plot

percent of parent: 29%
B1: G protein α subunit Gαolf, wild type, P38405 P102_V104del (protein)
chain: MGCLGGNSKTTEDQGVDEKERREANKKIEKQLQKERLAYKATHRLLLLGAGESGKSTIVKQMRILHVNGFNPEEKKQKILDIRKNVKDAIVTIVSAMSTIIPLANPENQFRSDYIKSIAPITDFEYSQEFFDHVKKLWDDEGVKACFERSNEYQLIDCAQYFLERIDSVSLVDYTPTDQDLLRCRVLTSGIFETRFQVDKVNFHMFDVGGQRDERRKWIQCFNDVTAIIYVAACSSYNMVIREDNNTNRLRESLDLFESIWNNRWLRTISIILFLNKQDMLAEKVLAGKSKIEDYFPEYANYTVPEDATPDAGEDPKVTRAKFFIRDLFLRISTATGDGKHYCYPHFTCAVDTENIRRVFNDCRDIIQRMHLKQYELL
